For the assay, the target named is T1, human EGFR extracellular domain (Prospec) (human, UniProt P00533 25-645).
T1 construct: extracellular domain; Bought protein; also called epidermal growth factor receptor
In words: SPR (Biacore T100); antibody captured on anti-human IgG CM5 chip, EGFR extracellular domain 6.25-100 nM as analyte; 1:1 Langmuir model. For orientation: Surface plasmon resonance follows binding to a sensor surface in real time, without labels.

Excerpt: 1× HBS-EP (GE healthcare) was used as a running buffer and a dilution buffer. About 5,000 RU (response unit) of an Anti-human IgG antibody (Jackson Immuno Research) were immobilized on a surface of a CM5 chip (GE healthcare) by standard amine-coupling. […] A contact time (association phase) was 180 seconds, and a separation time (washing with running buffer) was 600 seconds. After each binding cycle was terminated, Glycine-HCl pH 2.0 (GE healthcare) as a regeneration solution was flown onto the chip at a flow rate of 50 μL/min for 1 minute to remove the combined antigen and antibody from the chip. A sensorgram was obtained therefrom such that a fitting process was performed in BIA evaluation software by using a 1:1 Langmuir binding model for the EGFR case and by using a bivalent analyte model for the VEGF case.

B1: (E2)2, monospecific antibody recognizing the EGFR (antibody, human IgG1, V domains shown)
VL: DIQMTQSPTSLSASVGDRVTITCRASQWIGNLLDWYQQKPGEAPKLLIYYASFLQSGVPSRFSGGGFGTDFTLTISSLQPEDFATYYCQQANPAPLTFGQGTKVEIKR
notes: Homodimer of E2-hinge-Fc chains, inferred from the label (E2)2
Turning to B1, the Kd was determined as 4.91 nM. That is a single-digit nanomolar value.

What is called Kd is the constant that tells how readily two partners part at equilibrium.

Source of the values: US20130196377A1 (SAMSUNG ELECTRONICS, published 2013).
